How the values were obtained:
Assay in all cases: cell-based or functional assay
[1] = biological target: SARS-CoV-2的Alpha突变株(B.1.1.7)假病毒的刺突蛋白 (SARS-CoV-2) (UniProt P0DTC2)
[2] = biological target: SARS-CoV-2的Delta突变株(B.1.617.2)假病毒的刺突蛋白 (SARS-CoV-2) (UniProt P0DTC2)
[3] = biological target: SARS-CoV-2的Kappa突变株(B.1.617.1)假病毒的刺突蛋白 (SARS-CoV-2) (UniProt P0DTC2)

## CB6 (antibody)
[1]
  假病毒中和 IC50 (荧光素酶报告基因, 293-ACE2细胞): 0.0557 µg/mL
[2]
  假病毒中和 IC50 (荧光素酶报告基因, 293-ACE2细胞): 0.00343 µg/mL
[3]
  假病毒中和 IC50 (荧光素酶报告基因, 293-ACE2细胞): 0.0147 µg/mL

Source: patent CN116178530A
